One test deals with strain 89.6. In words: Single-round neutralization of pseudotyped virus, 89.6. In kind it is cell-based, HIV-1. The settings on record: 10 μg/ml and 2 μg/ml, FIG. 3. The source says:
(§1) With regard to 20 types of antibodies, their binding activity to the cell surface, the amount of antibody produced, and the like were taken into consideration. As a result, regarding 15 types of antibodies, the number of cells was increased, a culture supernatant was collected and was then filtrated, and a monoclonal antibody was then purified using a protein A column or protein G column (GE Healthcare). The neutralizing activity of the thus purified monoclonal antibody on pseudotyped HIV-1 viruses was examined at an antibody concentrations of 10 μg/ml and 2 μg/ml, using the envelopes of 4 types of HIV-1 strains commonly used in laboratories (FIG. 3). In order to produce such pseudotyped virus, on the day before transfection, 293T cells were dispersed on a 100-mm collagen-coated plate (IWAKI) to a cell concentration of 4×10^6, and they were then cultured at 37° C. overnight. […] Ten seconds after the addition of the luciferase substrate, fluorescence intensity was measured with a TR477 microplate luminometer (Applied Biosystems) (in the case of GHOST-hi5). […] Thereafter, β-galactosidase activity was measured with the TR477 microplate luminometer. […]

The subject of the next test is JR-FL strain. In words: MTT assay of combined use on JR-FL strain. In kind it is cell-based. The settings on record: combined use with CCR5 inhibitor (maraviroc, MVC); HIV-1JRFL; FIG. 12. (Formazan colour is commonly taken as a measure of viable cells.)
In test [1] the test system is HIV-1JR-FL chronically infected cells (PM1/JR-FL). In words: FACS binding to functional envelope on infected cell surface. Particulars: for reactivity in the absence of sCD4: absence of sCD4, FIG. 2. The protocol:
It has been known that HIV-1 has a functional envelope causing membrane fusion with target cells on viral particles and on the surfaces of chronically infected cells. In order to study whether or not the produced antibody is able to recognize this functional envelope, the binding activity of the antibody to the cell surface of HIV-1JR-FL chronically infected cells (PM1/JR-FL) was examined with a flow cytometer. […] PM1/JR-FL cells (2×10^5) were placed in a test tube. Thereafter, 50 μl of sCD4 that had been diluted with a FACS buffer (2% BSA, 0.02% Azide in PBS; pH 7.23) and adjusted to a concentration of 1 μg/ml, or 50 μl of only the FACS buffer, was added to the test tube. The mixture was reacted for 15 minute. Thereafter, 50 μl of monoclonal antibody diluted with a FACS buffer to a concentration of 1 to 3 μg/ml was then added to the reaction mixture, and the obtained mixture was reacted at room temperature for 45 minutes. The resultant was washed with a FACS buffer two times, and 50 μl of FITC-bound anti-human IgG antibody (Sigma) diluted with a FACS buffer at a ratio of 1:200 was then added to the resultant. The mixture was incubated at 4° C. in a dark place for 30 minutes. Thereafter, the resultant was washed with a FACS buffer two times, and it was then fixed with 0.5 ml of fixing solution {2% (w/v) paraformaldehyde in PBS}. The fixed sample was analyzed with FACSCalibur (Beckton-Dickinson). The incorporated data was analyzed with Cell Quest (Beckton-Dickinson). […] Differing from the reaction with the gp120 monomer, in the case of a functional envelope consisting of a trimer, the binding inhibition of CD4bs antibodies by sCD4 was not observed. On the other hand, with regard to CD4i antibodies, the 4 types of antibodies all had only weak reactivity in the absence of sCD4, but in the presence of sCD4, such reactivity was increased up to the level equivalent to the reactivity of a V3 antibody.
A general note: A flow cytometer gives signals particle by particle.

Test [2] deals with Standard Virus Panels B; SVPB (12 types of pseudotyped viruses). Nature of the test: Breadth of neutralization on Standard Virus Panels B. In kind it is cell-based, HIV-1.
Method: The neutralizing activity of the thus purified monoclonal antibody on pseudotyped HIV-1 viruses was examined at an antibody concentrations of 10 μg/ml and 2 μg/ml, using the envelopes of 4 types of HIV-1 strains commonly used in laboratories (FIG. 3). In order to produce such pseudotyped virus, on the day before transfection, 293T cells were dispersed on a 100-mm collagen-coated plate (IWAKI) to a cell concentration of 4×10^6, and they were then cultured at 37° C. overnight. Thereafter, 5 μg of pNL4-3-Luc-E^−R^− or 5 μg of pSG3ΔEnv (Li M. et. al, J. Virol. 79, pp. 10108-10125, 2005), 4.5 μg of an envelope expression vector, and 0.5 μg of a pRSV-REV vector were introduced into the culture using Effectene (QIAGEN), and the obtained mixture was then cultured at 37° C. in 5% CO2. […] Ten seconds after the addition of the luciferase substrate, fluorescence intensity was measured with a TR477 microplate luminometer (Applied Biosystems) (in the case of GHOST-hi5). […] Thereafter, β-galactosidase activity was measured with the TR477 microplate luminometer. Neutralizing activity was calculated in accordance with the expression {1−(t−c)/(n−c)}×100 (t: the fluorescence intensity of a sample; c: the background fluorescence intensity of only cells; n: the fluorescence intensity of a sample with no antibodies). […]
Test [3] has as its system pseudotyped HIV-1 viruses (envelopes of 4 types of HIV-1 strains). In words: Single-round neutralization of pseudotyped viruses, 4 strains overall. In kind it is cell-based. The settings on record: 4 types of envelope pseudotyped viruses overall; FIG. 3.
Text: as §1, with “overnight. Thereafter, 5 μg of pNL4-3-Luc-E^−R^− or 5 μg of pSG3ΔEnv (Li M. et. al, J. Virol. 79, pp. 10108-10125, 2005), 4.5 μg of an envelope expression vector, and 0.5 μg of a pRSV-REV vector were introduced into the culture using Effectene (QIAGEN), and the obtained mixture was then cultured at 37° C. in 5% CO2. Twenty-four hours after initiation of the culture, a supernatant was recovered and was then pass through a 0.2-μm filter. Thereafter, it was then dispensed and was then conserved at −80° C. The obtained pseudotyped virus was subjected to a p24 Antigen ELISA kit (ZeptoMetrix Co.) to measure the amount of p24 antigen. A single-round neutralization experiment using the pseudotyped virus was carried out as follows. On the day before the experiment, GHOST-hi5 cells or TZM-bl cells were dispersed on a 96-well flat bottom culture plate (Falcon) at a concentration of 2×10^4 cells/200 μl.” for “overnight.”

For another test, the system named is strain JR-FL. Nature of the test: Single-round neutralization of pseudotyped virus, JR-FL. In kind it is cell-based, HIV-1. The settings on record: 10 μg/ml and 2 μg/ml, FIG. 3.
Text: as §1

The test system of test [4] is HIV-1 of subtype B (Western type). Nature of the test: MTT assay neutralization, 17 types of viral strains overall. In kind it is cell-based. The settings on record: summary of Table 2. The protocol: Neutralizing activity on 17 types of viral strains including clinically isolated strains was studied (Table 2). For this neutralization experiment, the following MMT assay was applied. As a method, 2×10^3 PM1/CCR5 cells were infected with 100 TCID50 virus in the presence of the antibody in each concentration on a 96-well round-bottom micro culture plate, and the cells were then cultured at 37° C. for 7 days. Thereafter, 100 μl of a culture solution was removed from each well, and 10 μl of an MTT (3-[4,5-dimethylthiazol-2-yl]-2,5-diphenyltetrazolium bromide) solution dissolved in a phosphate-buffered saline (PBS) (7.5 mg/ml) was then added thereto. The obtained mixture was incubated at 37° C. for 3 hours. Thereafter, 100 μl of acidified isopropanol containing 4% Triton X-100 (vol/vol) was added to each well, so as to release formazan crystal. The absorbance (570 nm) was measured with a microplate reader, and the cell survival rate was calculated. This experiment was repeated 2 or 3 times. The antibody concentration necessary for inhibiting 50% virus infection (IC50) was calculated, and the antibody concentration corresponding to such IC50 was indicated with color-coding.
It should be noted that strains, which were not neutralized by the anti-V3 antibody, 0.5γ(1C10), were neutralized by the CD4bs antibodies, 0.5δ(3D6) and 49G2. That is to say, a complementary neutralization was observed.

Test [5] concerns the target T1, gp120 (Human immunodeficiency virus type 1 group M subtype B, UniProt P03378). The settings on record: 0.5δ(3D6) 5 μg/ml for 15 minutes versus control antibody 8D11; FIG. 4.
Method: Thereafter, a supernatant was removed, and 175 μl of a blocking buffer (2% bovine serum albumin; BSA, 0.1% Azide, PBS, pH 7.2) was added to the residue. The obtained mixture was left at rest at room temperature for 30 minutes. Thereafter, the well was washed with an ELISA wash buffer (0.15% Tween20, PBS, pH 7.2) three times, and 50 μl each of monomeric gp120 (gp120-SF2; Austral Biologicals, San Ramon, Calif.) was then added thereto. The obtained mixture was left at rest at room temperature for 2 hours. Thereafter, the resultant was washed with the ELISA wash buffer three times, so as to produce a “gp120-captured plate.” A culture supernatant of B cells was added to this plate, and the mixture was then reacted at room temperature for 2 hours. The resultant was washed with the ELISA wash buffer three times, and 100 μl of anti-human IgG-ALP, which had been diluted by a factor of 1000 with the ELISA buffer, was then added to the resultant. The obtained mixture was left at rest at room temperature for 1 hour. The resultant was washed with the ELISA wash buffer three times. Phosphatase substrate (SIGMA) was dissolved in a substrate buffer (Diethanol amine buffer; pH 9.85), and 100 μl of the obtained solution was then added to each well, followed by leaving the mixture at rest at room temperature for 10 to 30 minutes. Thereafter, the absorbance (405 nm) was measured with a microplate reader. […]
Test [6] has as its target T1, gp120. Particulars: epitope on gp120: V3L, CD4bs, CD4i.
Method: Antibodies reacting with gp120 are classified into the following 4 types, depending on the types of reactive epitopes. Specifically, the 4 types are a CD4-binding site (CD4bs), a CD4-induced epitope (CD4i), a third variable loop (V3loop; V3L), and those that cannot be classified into the aforementioned groups (other epitopes). Whether or not an antibody binds to V3L is determined by ELISA using a synthetic peptide having the amino acid sequence of V3L (V3-peptide ELISA). […] On the day before the experiment, 100 μl of a peptide (NNT20) diluted in PBS at a concentration of 5 μg/ml was added to each well of a 96-well polypropyren plate, and it was then left at 4° C. overnight. After washing, 175 μl of a blocking buffer was added to each well, and was incubated at room temperature for 30 minutes. The plate was washed with an ELISA wash buffer three times, and a B cell culture supernatant diluted serially was then added to the wells. The plate was reacted at room temperature for 2 hours. […] After washing the resultant, color was developed using ALP-Substrate, and the absorbance (405 nm) was then measured. […]
On the other hand, soluble CD4 (sCD4; R&D Systems, Inc. Minneapolis, Minn.) exerts completely opposite influences on a CD4bs antibody and a CD4i antibody. […] After washing them, color was developed using ALP-Substrate, and the absorbance (405 nm) was then measured.
A further test has as its system 93TH976.17. In words: Neutralization of subtype AE virus 93TH976.17. In kind it is cell-based, HIV-1. Particulars: 93TH976.17, subtype AE; FIG. 11. The source says:
(§2) As with the panels of subtype (clade) B viruses (SVPB), the panels of subtype C viruses have also been supplied. […] Thus, it is considered that they are important for the studies of cross-clade neutralization by antibodies.

For test [7], the target named is monomeric gp120 (gp120-SF2) (Human immunodeficiency virus type 1 group M subtype B, UniProt P03378). Particulars: presence or absence of 0.5 μg/ml sCD4; FIG. 1.
Method: The “gp120-capture ELISA” was applied to screen for the antibody-producing cells having an anti-gp120 activity (J. P. Moore et al., J. Virol. 67, pp. 6136-6151, 1993). […] Thereafter, a supernatant was removed, and 175 μl of a blocking buffer (2% bovine serum albumin; BSA, 0.1% Azide, PBS, pH 7.2) was added to the residue. The obtained mixture was left at rest at room temperature for 30 minutes. Thereafter, the well was washed with an ELISA wash buffer (0.15% Tween20, PBS, pH 7.2) three times, and 50 μl each of monomeric gp120 (gp120-SF2; Austral Biologicals, San Ramon, Calif.) was then added thereto. The obtained mixture was left at rest at room temperature for 2 hours. Thereafter, the resultant was washed with the ELISA wash buffer three times, so as to produce a “gp120-captured plate.” A culture supernatant of B cells was added to this plate, and the mixture was then reacted at room temperature for 2 hours. The resultant was washed with the ELISA wash buffer three times, and 100 μl of anti-human IgG-ALP, which had been diluted by a factor of 1000 with the ELISA buffer, was then added to the resultant. […] Thereafter, the absorbance (405 nm) was measured with a microplate reader.
Utilizing this property, monoclonal antibodies were classified. […] After washing them, color was developed using ALP-Substrate, and the absorbance (405 nm) was then measured.
The next test has as its system SVPC15. Nature of the test: Neutralization of subtype C virus panel, SVPC15. In kind it is cell-based, HIV-1. Particulars: compared with a control antibody, FIG. 11.
Text: as §2

The next test has as its system 93TH966.8. In words: Neutralization of subtype AE virus 93TH966.8. In kind it is cell-based, HIV-1. The settings on record: 93TH966.8, subtype AE; FIG. 11.
Text: as §2

Another test has as its system SVPC13. Nature of the test: Neutralization of subtype C virus panel, SVPC13. Particulars: compared with a control antibody, FIG. 11. In kind it is cell-based, HIV-1.
Text: as §2

T1 sequence (P03378 32-509): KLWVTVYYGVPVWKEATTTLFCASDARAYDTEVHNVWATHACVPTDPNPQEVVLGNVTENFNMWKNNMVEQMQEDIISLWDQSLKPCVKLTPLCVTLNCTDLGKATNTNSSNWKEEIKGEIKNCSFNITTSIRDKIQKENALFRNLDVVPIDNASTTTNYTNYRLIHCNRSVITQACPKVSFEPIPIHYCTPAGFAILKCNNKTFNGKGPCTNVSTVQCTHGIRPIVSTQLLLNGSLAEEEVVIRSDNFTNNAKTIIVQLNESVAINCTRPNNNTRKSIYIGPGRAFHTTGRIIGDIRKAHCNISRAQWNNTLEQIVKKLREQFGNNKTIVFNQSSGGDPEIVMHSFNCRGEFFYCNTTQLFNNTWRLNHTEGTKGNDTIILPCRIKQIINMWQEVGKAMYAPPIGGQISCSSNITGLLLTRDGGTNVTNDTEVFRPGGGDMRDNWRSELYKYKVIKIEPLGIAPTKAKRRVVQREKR
Sequence of monomeric gp120 (gp120-SF2) (P03378 32-509): as above
Method for JR-FL strain: By combining 0.5δ and 0.5γ in various concentrations, their neutralizing activity on a JR-FL strain was analyzed by an MTT assay. […] In order to analyze such synergistic effect, the analysis method of Chow/Talaley et al. and the 3-dimensional analysis method were applied. […]

B1: 0.5γ(1C10): human IgG1 κ monoclonal antibody to gp120 V3 loop; VH SEQ ID NO: 1, VL SEQ ID NO: 2; FERM BP-11060 (antibody, listed as Homo sapiens, V domains shown)
VH: EVQLVESGGGLIQPGGSLRLSCAASGFTVSSSSMSWVRQAPEKGLEWVSVVYSGGNTYNADSVKGRFSISRDNSKNTVYLQMNSLRADDTAVYYCARDLGGGDRSSDYWGQGTLVTVSS
VL: DIQLTQSPSSLSASVGDRVTITCRASESINTYLNWYQQRPGKAPKLLIYAASTLQTGVPSRFSGSGSGTLFTLTISSLQPEDLATYYCQQSFSTLPYTLGRGTKVEIKG
notes: human IgG1 κ monoclonal antibody to gp120 V3 loop; FERM BP-11060
As for B1, the neutralizing activity entry in the test with strain 89.6 is on record as “exhibited a neutralizing activity”; in [3], “strong neutralizing activity”; in the test with strain JR-FL it was “exhibited a neutralizing activity”. Further, in the test with JR-FL strain, the “combination effect on neutralizing activity” value is on record as “synergistic inhibitory effect”. Besides, in [1], the “reactivity in the absence of sCD4” value is “strong reactivity”. The “viruses whose growth was suppressed 50% or more” value is listed as 7/12 in test [2] (at a concentration of 50 μg/ml) and 10/12 in test [2] (at a concentration of 150 μg/ml). In addition, the “neutralizing activity on various HIV-1 strains, overall” value in test [4] is given as “wide range of strong neutralizing activity”. Also, in the test with gp120 [5], the “reactivity of biotinylated antibody with gp120 in the presence of 0.5δ” value is recorded as “significantly enhanced”.

B2: 5G2: IgG1 κ monoclonal antibody to gp120 V3 loop; VH SEQ ID NO: 3, VL SEQ ID NO: 4; FERM BP-11021 (antibody, listed as Homo sapiens, V domains shown)
VH: EVQLVESGGGVVRPGNSLRLSCAASGIIFSTANLHWLRHVPGKGLEWVAIISYDGHRQYYADLVKGRFTISRDNSKNTLHLQMDGLTSDDTAVYYCAKDGADENNLGPAFDYWGRGTLVTVSS
VL: EIVLTQSPATLSVSPGEGATLSCRASQSISSNLAWYQQKPGQAPRLLIYGASTGATGIPARFSGSGSGTDFTLTISRLEPEDFAIYYCQQYGSLPITFGQGTRLEIKR
notes: IgG1 κ monoclonal antibody to gp120 V3 loop; FERM BP-11021
B2: the figures for the neutralizing activity result (with strain 89.6; in test [3]; in the test with strain JR-FL) were “exhibited a neutralizing activity”, “strong neutralizing activity” and “exhibited a neutralizing activity”, respectively. In addition, the “combination effect on neutralizing activity” value with JR-FL strain is “synergistic inhibitory effect”. In addition, the “reactivity in the absence of sCD4” value in [1] was “strong reactivity”. In addition, in test [4], the “neutralizing activity on various HIV-1 strains, overall” value was “equivalent to that of a KD-247 antibody”.

B3: 42F9: IgG1 κ monoclonal antibody to gp120 CD4-binding site; VH SEQ ID NO: 7, VL SEQ ID NO: 8; FERM BP-11022 (antibody, listed as Homo sapiens, V domains shown)
VH: EVQLVESGGGVVRPGGSLRLSCAASGFAFGEYGMSWVRQAPGKGLEWVSGINWNGGSTGYADSVQGRFTTSRDNAKNSLYLQMNSLRAEDTALYYCARDENYDILTGNYYYGMDVWGQGTTVTVSS
VL: DIQLTQSPSSLSASVGDRVTITCRASQSISNYLNWYQQKPGKAPKLLIYAASSLQSGVPSRFSGSGSGTDFTLTISSLQPEDFATFYCQQSHSIPYTFGQGTKLEIKR
Turning to B3, the Traget result with gp120 [6] was “CD4bs”. Besides, the neutralizing activity entry with 93TH976.17 is reported as “exhibited a neutralizing activity”; in the test with SVPC15, “clear neutralizing activity”; in [3] it was “strong neutralizing activity”; in the test with 93TH966.8, “exhibited a neutralizing activity”; in the test on SVPC13 it was “clear neutralizing activity”. Moreover, the “binding activity to the infected cell surface” value in test [1] (FIG. 2) is “had a binding activity”. Moreover, the “influence of sCD4 on reactivity with gp120” value in [7] was “suppressed in the presence of sCD4”.

The values are drawn from patent publication US8722861B2, “Monoclonal antibodies that bind to the V3 loop of HIV-1 gp120” (priority 2007, dated 2014).
